# According to paper PMC4521584:
# B1: WT His6-MutL, full length [E. coli] / WT MutS, full length [E. coli] (parent)
# chain 1: MPIQVLPPQLANQIAAGEVVERPASVVKELVENSLDAGATRIDIDIERGGAKLIRIRDNGCGIKKDELALALARHATSKIASLDDLEAIISLGFRGEALASISSVSRLTLTSRTAEQQEAWQAYAEGRDMNVTVKPAAHPVGTTLEVLDLFYNTPARRKFLRTEKTEFNHIDEIIRRIALARFDVTINLSHNGKIVRQYRAVPEGGQKERRLGAICGTAFLEQALAIEWQHGDLTLRGWVADPNHTTPALAEIQYCYVNGRMMRDRLINHAIRQACEDKLGADQQPAFVLYLEIDPHQVDVNVHPAKHEVRFHQSRLVHDFIYQGVLSVLQQQLETPLPLDDEPQPAPRSIPENRVAAGRNHFAEPAAREPVAPRYTPAPASGSRPAAPWPNAQPGYQKQQGEVYRQLLQTPAPMQKLKAPEPQEPALAANSQSFGRVLTIVHSDCALLERDGNISLLSLPVAERWLRQAQLTPGEAPVCAQPLLIPLRLKVSAEEKSALEKAQSALAELGIDFQSDAQHVTIRAVPLPLRQQNLQILIPELIGYLAKQSVFEPGNIAQWIARNLMSEHAQWSMAQAITLLADVERLCPQLVKTPPGGLLQSVDLHPAIKALKDE
# chain 2: MSAIENFDAHTPMMQQYLRLKAQHPEILLFYRMGDFYELFYDDAKRASQLLDISLTKRGASAGEPIPMAGIPYHAVENYLAKLVNQGESVAICEQIGDPATSKGPVERKVVRIVTPGTISDEALLQERQDNLLAAIWQDSKGFGYATLDISSGRFRLSEPADRETMAAELQRTNPAELLYAEDFAEMSLIEGRRGLRRRPLWEFEIDTARQQLNLQFGTRDLVGFGVENAPRGLCAAGCLLQYAKDTQRTTLPHIRSITMEREQDSIIMDAATRRNLEITQNLAGGAENTLASVLDCTVTPMGSRMLKRWLHMPVRDTRVLLERQQTIGALQDFTAGLQPVLRQVGDLERILARLALRTARPRDLARMRHAFQQLPELRAQLETVDSAPVQALREKMGEFAELRDLLERAIIDTPPVLVRDGGVIASGYNEELDEWRALADGATDYLERLEVRERERTGLDTLKVGFNAVHGYYIQISRGQSHLAPINYMRRQTLKNAERYIIPELKEYEDKVLTSKGKALALEKQLYEELFDLLLPHLEALQQSASALAELDVLVNLAERAYTLNYTCPTFIDKPGIRITEGRHPVVEQVLNEPFIANPLNLSPQRRMLIITGPNMGGKSTYMRQTALIALMAYIGSYVPAQKVEIGPIDRIFTRVGAADDLASGRSTFMVEMTETANILHNATEYSLVLMDEIGRGTSTYDGLSLAWACAENLANKIKALTLFATHYFELTQLPEKMEGVANVHLDALEHGDTIAFMHSVQDGAASKSYGLAVAALAGVPKEVIKRARQKLRELESISPNAAATQVDGTQMSLLSVPEETSPAVEALENLDPDSLTPRQALEWIYRLKSLV
# Variants of: B1
# Test: SPR
# Conditions: with WT MutS, MutS sliding clamps pre-formed on 100-bp end-blocked DNA in the presence of ATP, value read at the highest MutL concentration (last point, est. about 5,000 …), read off a plot
row,Variant,response
1,chain 1 K52C,13%
2,chain 1 A138E H139A,3%
3,chain 1 A138E,11%
4,chain 1 R55D R57D A138E H139A,-1%
5,chain 1 R55D R57D,-7%

# Same assay, conditions: with WT His6-MutL, MutS sliding clamps pre-formed on 100-bp end-blocked DNA in the presence of ATP, value read at the highest MutL concentration (last point, est. about 5,000 …), read off a plot
row,Variant,response
1,chain 2 P595A I597A M759D,8%
